Data published in patent US20110251266, “APTAMER FOR NGF AND USE THEREOF” (Shionogi & Co., Ltd., published 2011).

Biological target: beta-NGF (nerve growth factor) (Homo sapiens, UniProt P01138 P01138:122-241)
Test: cell_activity; Neuroscreen-1 neurite outgrowth; 92% inhibition at 300 nM (Table 5)
Conditions: tags: R&D Systems human NGF; chain copies: 2

Sequence of beta-NGF (nerve growth factor) (P01138 122-241, one chain of several): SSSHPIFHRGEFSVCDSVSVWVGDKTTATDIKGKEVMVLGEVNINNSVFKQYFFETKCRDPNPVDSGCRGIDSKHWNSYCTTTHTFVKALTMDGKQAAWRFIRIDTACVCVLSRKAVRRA

## GGGAAGCCUGUGGAGCUGCAGGAUGAAAAAAACCCAAA (ssRNA, 2'-F pyrimidines) [SEQ35 aptamer]
  IC50: 91.5 nM
